Source: patent US20230365703A1 (SHANGHAI LYN CREST ENTERPRISE MANAGEMENT, published 2023)

Assays:
[1] = molecular target: CD47 on CD47-transfected CHO-K1 cells (Homo sapiens (Human), UniProt Q08722 19-323); experiment: flow cytometry on CD47-transfected CHO-K1 cells (CD38-/CD47+), anti-human IgG-FITC detection
[2] = molecular target: T1, IL12 receptors on H_IL12 Reporter 293 cells (UniProt P42701 24-662; Q99665 24-862, limits assumed); experiment: cell-based or functional assay
[3] = molecular target: T1, IL12 receptors on H_IL12 Reporter 293 …; experiment: cell-based or functional assay; remark: listed apart in the source
[4] = molecular target: T2, GPC3 on liver cancer cells (HepG2, HuH-7) (UniProt P51654 25-554); experiment: flow cytometry on HepG2 cells, Alexa Fluor 488 anti-human IgG; table under the plot prints no unit, unit taken from the axis Con.(nM)
T2 construct: whole, on cells; also called GPC3 antigen

T1 sequence (Q99665 24-862 limits assumed, chain 2 of 2, other chains not shown): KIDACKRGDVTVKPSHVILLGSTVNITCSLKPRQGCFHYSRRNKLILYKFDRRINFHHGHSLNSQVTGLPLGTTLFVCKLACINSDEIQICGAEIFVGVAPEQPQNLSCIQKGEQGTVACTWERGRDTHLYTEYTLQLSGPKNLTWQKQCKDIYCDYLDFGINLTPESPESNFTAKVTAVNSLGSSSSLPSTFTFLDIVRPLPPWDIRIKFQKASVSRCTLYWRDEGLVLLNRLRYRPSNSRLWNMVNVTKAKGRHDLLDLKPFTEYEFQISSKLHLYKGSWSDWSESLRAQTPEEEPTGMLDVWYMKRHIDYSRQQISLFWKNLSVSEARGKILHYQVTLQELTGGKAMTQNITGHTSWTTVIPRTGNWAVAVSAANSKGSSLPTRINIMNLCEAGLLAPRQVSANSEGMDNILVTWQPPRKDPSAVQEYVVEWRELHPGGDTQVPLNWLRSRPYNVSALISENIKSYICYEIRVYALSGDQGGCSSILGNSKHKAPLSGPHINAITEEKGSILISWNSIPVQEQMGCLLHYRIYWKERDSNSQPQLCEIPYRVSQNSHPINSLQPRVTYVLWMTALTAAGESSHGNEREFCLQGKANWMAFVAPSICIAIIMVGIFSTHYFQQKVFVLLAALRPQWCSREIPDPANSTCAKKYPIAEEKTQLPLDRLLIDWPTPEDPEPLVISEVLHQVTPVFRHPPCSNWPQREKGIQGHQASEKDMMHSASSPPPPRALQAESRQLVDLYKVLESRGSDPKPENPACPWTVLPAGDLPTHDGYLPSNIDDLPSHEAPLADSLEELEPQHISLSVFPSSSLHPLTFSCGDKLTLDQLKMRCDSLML

B1: Anti-CD38 monoclonal antibody Felzartamab (antibody, human IgG1, lambda, V domains shown)
VH: QVQLVESGGGLVQPGGSLRLSCAASGFTFSSYYMNWVRQAPGKGLEWVSGISGDPSNTYYADSVKGRFTISRDNSKNTLYLQMNSLRAEDTAVYYCARDLPLVYTGFAYWGQGTLVTVSS
VL: DIELTQPPSVSVAPGQTARISCSGDNLRHYYVYWYQQKPGQAPVLVIYGDSKRPSGIPERFSGSNSGNTATLTISGTQAEDEADYYCQTYTGGASLVFGGGTKLTVLG
binding result [1]: no binding

B2: LCB-018 (bispecific antibody)
heavy: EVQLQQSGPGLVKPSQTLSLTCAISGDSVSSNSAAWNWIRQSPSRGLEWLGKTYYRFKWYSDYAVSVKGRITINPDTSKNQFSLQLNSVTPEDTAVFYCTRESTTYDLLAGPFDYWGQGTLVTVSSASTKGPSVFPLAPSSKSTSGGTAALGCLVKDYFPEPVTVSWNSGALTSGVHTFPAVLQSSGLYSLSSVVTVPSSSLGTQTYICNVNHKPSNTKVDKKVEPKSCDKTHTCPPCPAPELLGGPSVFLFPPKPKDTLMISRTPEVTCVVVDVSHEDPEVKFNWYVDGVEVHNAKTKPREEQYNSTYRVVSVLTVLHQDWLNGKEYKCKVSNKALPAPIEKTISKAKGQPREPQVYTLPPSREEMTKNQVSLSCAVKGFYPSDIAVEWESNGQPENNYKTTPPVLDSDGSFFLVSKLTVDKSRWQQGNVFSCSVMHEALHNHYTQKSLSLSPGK
chain 1: not shown
chain 2: WELKKDVYVVELDWYPDAPGEMVVLTCDTPEEDGITWTLDQSSEVLGSGKTLTIQVKEFGDAGQYTCHKGGEVLSHSLLLLHKKEDGIWSTDILKDQKEPKNKTFLRCEAKNYSGRFTCWWLTTISTDLTFSVKSSRGSSDPQGVTCGAATLSAERVRGDNKEYEYSVECQEDSACPAAEESLPIEVMVDAVHKLKYENYTSSFFIRDIIKPDPPKNLQLKPLKNSRQVEVSWEYPDTWSTPHSYFSLTFCVQVQGKSKREKKDRVFTDKTSATVICRKNASISVRAQDRYYSSSWSEWASVPCS
EC50 on H_IL12 Reporter 293 cells (One-Glo signal; called binding affinity by the filing) [2]: 30 nM
fold weaker than the IL12A and IL12B complex on H_IL12 Reporter 293 cells [2]: ~500 times
EC50 (read off the curve), H_IL12 Reporter 293 cells, One-Glo signal, LCB-018 with IL12B after isotype pre-incubation (TIGIT free) [3]: ~4 nM
EC50 (read off the curve), H_IL12 Reporter 293 cells, One-Glo signal, LCB-018 with IL12B after pre-block of TIGIT with 200 nM Tiragolumab [3]: ~10 nM

B3: Anti-GPC3 monoclonal antibody codrituzumab (antibody, human IgG1, kappa, V domains shown)
VH: QVQLVQSGAEVKKPGASVKVSCKASGYTFTDYEMHWVRQAPGQGLEWMGALDPKTGDTAYSQKFKGRVTLTADKSTSTAYMELSSLTSEDTAVYYCTRFYSYTYWGQGTLVTVSS
VL: DVVMTQSPLSLPVTPGEPASISCRSSQSLVHSNRNTYLHWYLQKPGQSPQLLIYKVSNRFSGVPDRFSGSGSGTDFTLKISRVEAEDVGVYYCSQNTHVPPTFGQGTKLEIKR
notes: also called GC33; anti-GPC3 mAb
EC50 [4]: 0.529 nM
